These results are taken from US20210332145A1 (SINGLE CELL TECHNOLOGY, published 2021).

Assay [1] has as its target T1, human BCMA with a His tag (ACROBiosystems, Catalog No.: BCA-H522y) (human).
T1 construct: Bought His-tagged recombinant protein; also called huBCMA-His; Recombinant human BCMA
T1 chain: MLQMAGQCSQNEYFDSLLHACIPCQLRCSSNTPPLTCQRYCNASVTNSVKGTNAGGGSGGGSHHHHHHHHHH
Nature of the assay: SPR, Biacore T200. The procedure: The binding affinity of select anti-BCMA was measured on a surface plasmon resonance (SPR) instrument, Biacore T200™, against human BCMA by a method known in the art.
In experiments performed essentially as described above, a subset of anti-human BCMA antibodies of the present disclosure bind human BCMA with a His tag (ACROBiosystems, Beijing, China, Catalog No.: BCA-H522y, SEQ ID NO:2) with affinity shown in Table 6.

The target in assay [2] is T2, BCMA on cells (293T cells transfected with BCMA; H929, MM.1S and U266 cell lines expressing BCMA) (human, UniProt Q02223 1-184).
T2 construct: H929, MM.1S and U266 carry the native protein; also called B-cell Maturation Antigen; TNFRSF17
T2 sequence: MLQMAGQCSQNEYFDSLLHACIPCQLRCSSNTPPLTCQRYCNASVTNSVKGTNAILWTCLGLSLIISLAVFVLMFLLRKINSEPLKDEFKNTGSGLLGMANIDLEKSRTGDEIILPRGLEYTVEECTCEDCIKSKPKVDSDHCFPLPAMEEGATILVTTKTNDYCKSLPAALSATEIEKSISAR
Nature of the assay: flow cytometry, H929 cells. On the procedure:
A cell line expressing BCMA, H929, was used to assess binding by anti-BCMA antibodies on the native protein on the cell surface by flow cytometry according to the known art. A subset of anti-human BCMA antibodies were assayed for binding to H929 and the fraction of cells bound the labeled antibody above background defined by control is shown in Table 8.

The target of assay [3] is T2, BCMA on cells (293T cells transfected …). Nature of the assay: flow cytometry, H929 cells. The source holds these as a separate data set.
The target in assay [4] is T1, human BCMA with a His tag …. Nature of the assay: ELISA, plate-coated human BCMA-His. The procedure:
(§1) The recombinantly expressed antibodies were used to assess binding activity to BCMA of different species origins by conventional ELISA according to the known art. Recombinant human BCMA, cyno BCMA, and mouse BCMA were coated onto ELISA plates to detect binding at serially diluted concentrations of the anti-BCMA antibody preparations.
(§2) The ability for antibodies of the present disclosure to bind human BCMA was measured with an ELISA assay. For the BCMA binding assay, a 96-well plate (Nunc) is coated with human BCMA with a His tag (ACROBiosystems, Catalog No.: AC108P1-180611F2-Bulk, SEQ ID NO:2) at 0.2 μg/well overnight at 4° C. Wells are blocked for 2 h with blocking buffer (PBS containing 3% bovine serum albumin). Wells are washed three times with PBS containing 0.1% Tween-20. Anti-human BCMA antibodies of the present disclosure or control IgG (100 μL) is then added and incubated at room temperature for 1 h. After washing, the plate is incubated with 100 μL of goat anti-mouse IgG Fcγ Fragment Specific-HRP conjugate (Jackson ImmunoResearch) at room temperature for 1 h. The plates are washed and then incubated with 100 μL of 3,3′,5,5′-tetra-methylbenzidine. The absorbance at 450 nm is read on a microplate reader. The half maximal effective concentration (EC50) is calculated using GraphPad Prism 6 software.
In experiments performed essentially as described above, anti-human BCMA antibodies of the present disclosure bind human BCMA with a His tag (ACROBiosystems, Beijing, China, Catalog No.: BCA-H522y, SEQ ID NO:2) with an EC50 values shown in Table 3.

Assay [5] concerns the target T3, mouse BCMA with a His tag (ACROBiosystems, Catalog No.: BCA-M52H3) (mouse).
T3 construct: Bought His-tagged recombinant protein
T3 chain: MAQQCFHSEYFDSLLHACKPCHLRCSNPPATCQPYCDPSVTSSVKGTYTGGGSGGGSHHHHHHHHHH
As to the kind of experiment: ELISA, plate-coated mouse BCMA-His. The procedure:
as §1, §2
In experiments performed essentially as described above, anti-human BCMA antibodies of the present disclosure bind mouse BCMA with a His tag (ACROBiosystems, Beijing, China, Catalog No.: BCA-M52H3, SEQ ID NO:109) with an EC50 values shown in Table 5.

In assay [6] the target is T2, BCMA on cells (293T cells transfected …). As to the kind of experiment: flow cytometry, 293T cells transfected with BCMA, above parental 293T background.
Assay [7] has as its target T4, cyno BCMA with a His tag (ACROBiosystems, Catalog No.: BCA-052H7) (cyno).
T4 construct: Bought His-tagged recombinant protein
As to the kind of experiment: ELISA, plate-coated cyno BCMA-His. The procedure:
as §1, §2
In experiments performed essentially as described above, anti-human BCMA antibodies of the present disclosure bind cyno BCMA with a His tag (ACROBiosystems, Beijing, China, Catalog No.: BCA-052H7, SEQ ID NO:110) with an EC50 values shown in Table 4.

T4 sequence (chain, as listed by the source limits assumed): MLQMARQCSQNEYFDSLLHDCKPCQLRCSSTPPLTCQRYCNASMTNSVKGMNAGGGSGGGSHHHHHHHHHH

B1: SCT-Aa05(m/m) (antibody, V domains shown)
VH: EVKLLQSGGGLVQPGGSLKLSCAASGIDFSRYWMSWVRRAPGKGLEWIGEINPDSSTINYAPSLKDKFIISRDNAKNTLYLQMSKVRSEDTGLYYCASLYYDYEREYGMDYWGQGTSVTVSS
VL: DIVMTQSQKFMSTSVGDRVSVTCKASQNVGTNVAWYQQKPGQSPKALIYSASYRFSGVPDRFTGSGSGTDFTLTISNVQSEDLAEYFCQQYNSYPYTFGGGTKLEIK
notes: Full IgG format: mouse IgG1 heavy chain constant region, mouse kappa light chain constant region
In assay [1], B1 registered a Kd of 4.91 nM, a koff of 0.00034 s⁻¹ and a kon of 69200 M⁻¹ s⁻¹. In assay [2], the “Positive (%)” value came to 99.9%. For the same molecule, the Mean fluorescent intensity in assay [3] came out at 2020. The molecule further had an EC50 in assay [4] of 2.12 ng/mL. In addition, the EC50 in assay [5] amounted to 52.2 ng/mL. Moreover, the “Positive (%)” value in assay [6] turned out to be 94.3%.

B2: SCT-Aa03(m/m) (antibody, V domains shown)
VH: EVKLLQSGGGLVQPGGSLKLSCAASGIDFSRYWMSWVRRAPGKGLEWIGEINPDSSTINYAPSLKDKFIISRDNAKNTLYLQMSKVRSEDTALYYCASFYYDYDHAMDYWGQGTSVTVSS
VL: DIVMTQSQKFMSTSVGDRFSVTCKASQNVGTNVAWYQQKPGQSPKALIYSASYRFSGVPDRFTGSGSGTDFTLTISNVQSEDLAEYFCQQYNSYPFTFGSGTKLEIK
notes: as for B1
In assay [1], B2 registered a Kd of 11.7 nM, a koff of 0.00263 s⁻¹ and a kon of 224000 M⁻¹ s⁻¹. Moreover, the “Positive (%)” value in assay [2] came out at 99.9%. The molecule also gave a Mean fluorescent intensity in assay [3] of 3920. This molecule also displayed an EC50 in assay [4] of 1.71 ng/mL. Besides, in assay [5], the EC50 was found to be 79.1 ng/mL. Besides, the “Positive (%)” value in assay [6] is 91.6%.

B3: SCT-Aa05(h/h) (antibody, V domains shown)
VH: EVKLLQSGGGLVQPGGSLKLSCAASGIDFSRYWMSWVRRAPGKGLEWIGEINPDSSTINYAPSLKDKFIISRDNAKNTLYLQMSKVRSEDTGLYYCASLYYDYEREYGMDYWGQGTSVTVSS
VL: DIVMTQSQKFMSTSVGDRVSVTCKASQNVGTNVAWYQQKPGQSPKALIYSASYRFSGVPDRFTGSGSGTDFTLTISNVQSEDLAEYFCQQYNSYPYTFGGGTKLEIK
notes: Full IgG format, chimeric: human IgG1 heavy chain constant region, human kappa light chain constant region
As for B3, in assay [1], the Kd is 9.93 nM, the dissociation rate constant (koff) worked out at 0.000995 s⁻¹ and the kon stood at 100000 M⁻¹ s⁻¹. Also, in assay [2], the “Positive (%)” value is 96.5%. The Mean fluorescent intensity in assay [3] stood at 758. Also, the EC50 in assay [4] was 2.35 ng/mL. This molecule came in with an EC50 in assay [5] of 29.4 ng/mL. The “Positive (%)” value in assay [6] was 76.3%.

B4: SCT-Aa04(h/h) (antibody, V domains shown)
VH: EVKLLQSGGGLVQPGGSLKLSCAASGIDFSRYWMSWVRRAPGKGLEWIGEINPDSSTINYAPSLKDKFIISRDNAKNTLYLQMSKVRSEDTALYYCASFYYDYDRGAAMDYWGQGTSVTVSS
VL: DIVMTQSQKFMSTSVGDRVSVTCKASQNVGTNVAWYQQKPGQSPKALIYSASYRYSGVPDRFTGSGSGTDFTLTISNVQSEDLAEYFCQQYNSYPYTFGGGTKLEIK
notes: as for B3
Regarding B4, in assay [1], the affinity, expressed as Kd, was 32.6 nM; the koff was 0.034 s⁻¹; the on-rate (kon) was determined as 1.04e+06 M⁻¹ s⁻¹. In addition, in assay [2], the “Positive (%)” value was 96.5%. In assay [3], this molecule yielded a Mean fluorescent intensity of 623. For the same molecule, the EC50 in assay [4] came to 2.48 ng/mL. The molecule further came in with a 50% effective concentration (EC50) in assay [5] of 270 ng/mL. In addition, the “Positive (%)” value in assay [6] amounted to 72%.

B5: SCT-Aa02(h/h) (antibody, V domains shown)
VH: EVKLLQSGGGLVQPGGSLKLSCAASGIDFSRYWMSWVRRAPGKGLEWIGEINPDSSTINSAPSLEDKFIISRDNAKNTLYLQMSKVRSEDTALYYCASLYYDYERDYAMDYWGQGASVTVSS
VL: DIVMTQSQKFMSTSVGDRVSVTCKASQNVGTNVAWYQQKPGQSPKALIYSASYRFSGVPDRFTGSGSGTDFTLTISNVQSEDLAEYFCQQYHSYPFTFGGGTKLEIK
notes: as for B3
In assay [1], B5 registered a Kd of 1.22 nM, a koff of 0.000374 s⁻¹ and a kon of 306000 M⁻¹ s⁻¹. Also, in assay [2], the “Positive (%)” value is 99.2%. In assay [3], this molecule came in with a Mean fluorescent intensity of 1280. This molecule showed an EC50 in assay [7] of 43.3 ng/mL. For the same molecule, a half-maximal response in assay [4] (EC50) required 2.85 ng/mL. For the same molecule, the “Positive (%)” value in assay [6] was determined as 81.9%.

B6: SCT-Aa13(m/m) (antibody, V domains shown)
VH: QVQLQQSDAELVKPGASVKISCKVSGYTFTDYTIHWMKQRPEQGLEWIGYIYPRDGSTKYNEKFKGKATLTADKSSSTAYMQLNSLTSEDSAVYFCARWDYEGFDYWGQGTTLTVSS
VL: DIVMTQSPATLSVTPGDRVSLSCRASQSISDYLHWYQQKSHESPRLLIKYASQSISGIPSRFSGSGSGSDFTLSINSVEPEDVGVYYCQNGHSFPPTFGSGTKLEIK
notes: as for B1
In assay [1], B6 came in with a Kd of 43.8 nM. Moreover, in assay [1], the koff is 0.0358 s⁻¹. Besides, the kon in assay [1] is 817000 M⁻¹ s⁻¹. For the same molecule, the “Positive (%)” value amounted to 99.9% in assay [2] and 84.4% in assay [6]. Besides, in assay [3], the Mean fluorescent intensity is 2560. For the same molecule, the EC50 in assay [7] was determined as 174 ng/mL; in assay [4], 2.64 ng/mL; in assay [5], 529 ng/mL.

B7: SCT-Aa09(m/m) (antibody, V domains shown)
VH: QVQLQQSDAELVKPGASVKISCKVSGYTFTDHTIHWMKQRPEQGLEWIGYFYPRDDNTKYNEKFKGKATLTADRSSSTAYMQLNSLTSEDSAVYFCARWDYEGFDYWGQGTTLTVSS
VL: DIVMTQSPATLSVTPGDRVSLSCRASQSIRDYLHWYQQKSHESPRLLIKYASQSISGIPSRFSGSGSGSDFTLSINSVEPEDVGVYYCQNGHSFPPTFGSGTKLEIK
notes: as for B1
In assay [1], B7 gave a Kd of 76.6 nM, a koff of 0.127 s⁻¹ and a kon of 1.66e+06 M⁻¹ s⁻¹. In addition, in assay [2], the “Positive (%)” value is 18.4%. Also, in assay [3], the Mean fluorescent intensity was 102. This molecule also registered an EC50 in assay [7] of 5570 ng/mL. Moreover, a half-maximal response in assay [4] (EC50) required 1.96 ng/mL. Further, the “Positive (%)” value in assay [6] worked out at 16.9%.

B8: SCT-Aa01(m/m) (antibody, V domains shown)
VH: DVQLQESGPGLVKPSQSLSLTCSVTGYSITSGYYWNWIRQFPGNKLEWMGYIRYDGSNNYNPSLKNRISITRDTSKNQFFLKLNSVTTEDTATYYCAPYDYDYAMDFWGQGTSVTVSS
VL: DIQMTQSPASLSASVGETVTITCRASGNIHNYLAWYQQKQGKSPQLLVYNAKTLAHGVPSRFSGSGSGTQYSLKITSLQPEDFGTYYCQHFWSTPFTFGSGTKLEIK
notes: as for B1
For the molecule B8, in assay [1], the Kd was found to be 68.6 nM, the koff was 0.0175 s⁻¹ and the kon is 255000 M⁻¹ s⁻¹. Also, in assay [2], the “Positive (%)” value was found to be 99.8%. Also, in assay [3], the Mean fluorescent intensity stood at 2090. In addition, the EC50 in assay [7] is 5.7 ng/mL. The molecule further registered an EC50 in assay [4] of 2.92 ng/mL. For the same molecule, the “Positive (%)” value in assay [6] was 48.2%.
